Results as given in publication PMC3804602, “Nanobody Mediated Crystallization of an Archeal Mechanosensitive Channel” (PLoS ONE, 2013).

T1: T2 mechanosensitive channel from Thermoplasma volcanium, tag free (Thermoplasma volcanium)
T1 construct: TVN0821, gene amplified from genomic DNA (DSM 4299 [GSS1*]); 297 amino acids per monomer; Cloned into pNIC28-Bsa4 (TEV site) and pET46 (Enterokinase site); In detergent (0.03 % DDM); also called T2 channel; tag free T2-channel; source: E. coli C43(DE3), purified (DDM solubilised, IMAC, tag cleavage, second IMAC, gel filtration); not shown: His-tag, N-terminal, cleaved
T1 chain: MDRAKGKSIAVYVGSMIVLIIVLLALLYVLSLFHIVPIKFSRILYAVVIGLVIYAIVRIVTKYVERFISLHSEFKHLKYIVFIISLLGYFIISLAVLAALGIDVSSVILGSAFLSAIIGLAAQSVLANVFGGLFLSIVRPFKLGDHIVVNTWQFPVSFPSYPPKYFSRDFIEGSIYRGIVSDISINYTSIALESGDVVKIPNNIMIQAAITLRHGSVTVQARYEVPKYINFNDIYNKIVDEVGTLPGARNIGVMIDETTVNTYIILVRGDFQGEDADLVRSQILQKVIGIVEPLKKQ


Experiments:
[1] = target: T1, T2 mechanosensitive channel from …; assay: SPR; BIAcore 3000, 25 °C, 20 mM sodium phosphate pH 7.4, 150 mM NaCl, 0.03 % DDM; T2 channel amine-coupled on CM5 (1500 - 2000 RU); nanobodies 0.35 - 86.1 nM injected in triplicates; global fit to a simple bimolecular model, KD = kd/ka; details: both partners purified
[2] = target: His-tagged T2 mechanosensitive channel from Thermoplasma volcanium (Thermoplasma volcanium); assay: far-Western, overlay or dot blot; channel samples run on SDS-PAGE and blotted on nitrocellulose (His-tagged T1 0.1 µg, His-tagged T2 0.1 µg, tag free T2 0.01 and 0.1 µg); strips incubated with nanobody at 1 µg/ml for 1 hour, bound His-tagged nanobody detected with HisProbe-HRP; intensity ratio of lane 2 of the sample strip to the reference strip

Binder	Kd [1] [nM]	koff [1] [s⁻¹]	kon [1] [M⁻¹ s⁻¹]	ratio of WB intensities [2]
nanobody 19 (VHH, pHEN6 vector; also called Nb 19; CA-number 3402; source: E. coli WK6 periplasm, purified (IMAC, gel filtration); not shown: His-tag, C-terminal, kept) VHH: QVQLQESGGGLVQPGGSLRLSCAASGSISRLNHMGWYRQPPGKQRELVAVITSGGSTDYADSVKGRFTISSGNAKNTVYLQMNSLKTEDTAVYYCNAYSEFIRPYTLWGQGTQVTVSS	1.29	0.0015	1.35e+06	17.5
nanobody 13 (VHH, pHEN6 vector; also called Nb 13; CA-number 3395; source: E. coli WK6 periplasm, purified (IMAC, gel filtration); not shown: His-tag, C-terminal, kept) VHH: QVQLQESGGGLVQPGGSLRLSCAASGSISRINHMGWYRQPPGKQRELVAVITSGGSTNYADSVKGRFTISRGNYQNTVYLQMNSLKAEDTAVYYCNAYTEFDRPYNHWGQGTQVTVSS	0.61	0.00088	1.46e+06	15.1
nanobody 15 (VHH, pHEN6 vector; also called Nb 15; CA-number 3397; source: E. coli WK6 periplasm, purified (IMAC, gel filtration); not shown: His-tag, C-terminal, kept) VHH: QVQLQESGGGLVQPGGSLRLSCAASGSISTINHMGWYRQPPGKQRELVAVITRSGSTNYADSVKGRFTISRGNVKNTVYLQMNSVKAEDTAVYYCNAYTEFDRPYNHWGQGTQVTVSS	0.057	0.00011	1.96e+06	25.7
nanobody 9 (VHH, pHEN6 vector; also called Nb 9; CA-number 3390; source: E. coli WK6 periplasm, purified (IMAC, gel filtration); not shown: His-tag, C-terminal, kept) VHH: QVQLQESGGGLVQPGGSLRLSCAASGSIFGINAMGWYRRPPGKQRELVAVITSGGSTNYADSVKGRFTISRGNAKNTVYLQMNSLKAEDTAVYYCNAYTDFVRPYNHWGQGTQVTVSS	48.3	0.15	3.1e+06	–
nanobody 3 (VHH, pHEN6 vector; also called Nb 3; CA-number 3382; source: E. coli WK6 periplasm, purified (IMAC, gel filtration); not shown: His-tag, C-terminal, kept) VHH: QVQLQESGGGLVQPGGSLRLSCAASGFTLDYYAIGWFRQTPGKEREGVSCISSSDDSTYYADSVKGRFTISRDNAKNTVYLQMNSLKPEDTAVYYCATGWACTLVAGTNGMDYWGKGTQVTVSS	9.5	0.0091	960000	4.59
nanobody 1 (VHH, pHEN6 vector; also called Nb 1; CA-number 3379; source: E. coli WK6 periplasm, purified (IMAC, gel filtration); not shown: His-tag, C-terminal, kept) VHH: QVQLQESGGGLVQPGGSLRLSCAASGRIPFITAMGWYRQAPGKQRELLASVTNSEITNYADSVKGRFTISRDNARNRVYLQMNSLKPEDTAVYYCNVKRAGNLIDYWGQGTQVTVSS	14.2	0.0278	1.98e+06	–
nanobody 23 (VHH, pHEN6 vector; also called Nb 23; CA-number 3407; source: E. coli WK6 periplasm, purified (IMAC, gel filtration); not shown: His-tag, C-terminal, kept) VHH: QVQLQESGGGLVQPGGFLTLSCAASGSPFSFGAMGWYRQAPGKQRELVAIITRRGSTNYADSVKGRFTVSSDNAKNTVYLQMNSLKPEDTAVYYCYHQTAPVADVTWGQGTQVTVSS	0.78	0.00095	1.26e+06	16.6
nanobody 11 (VHH, pHEN6 vector; also called Nb 11; CA-number 3393; source: E. coli WK6 periplasm, purified (IMAC, gel filtration); not shown: His-tag, C-terminal, kept) VHH: QVQLQESGGGLVQAGGSLRLSCAASGGPFTFGAMGWYRQAPGKQRELVAIITKKGSTNYADSVKGRFTVSRDNAKNTVYLQMNSLKPEDTAVYYCYHQTAPVADVTWGQGTQVTVSS	15.1	0.0016	100000	14.2
nanobody 21 (VHH, pHEN6 vector; also called Nb 21; CA-number 3404; source: E. coli WK6 periplasm, purified (IMAC, gel filtration); not shown: His-tag, C-terminal, kept) VHH: QVQLQESGGGLVQPGGSLRLSCAASGRIPFITAMGWYRQAPGRQRELLATVTNSGSTNYADSVKGRFTISRDNAKNTVSLQMNSLKAEDTAVYYCNVRRLGNLSDYWGQGTQVTVSS	37	0.171	5e+06	–
nanobody 17 (VHH, pHEN6 vector; also called Nb 17; CA-number 3399; source: E. coli WK6 periplasm, purified (IMAC, gel filtration); not shown: His-tag, C-terminal, kept) VHH: QVQLQESGGGLVQPGGSLRLSCAASGSIFSINSMDWYRQAPGKQRELVATITSGGSTNYADSVKGRFTISRDNGKNTVYLQMNSLKPEDTAVYYCHAVVSTRGGYWGQGTQVTVSS	4.5	0.00315	710000	6.09
nanobody 10 (VHH, pHEN6 vector; also called Nb 10; CA-number 3391; source: E. coli WK6 periplasm, purified (IMAC, gel filtration); not shown: His-tag, C-terminal, kept) VHH: QVQLQESGGGLVQPGGSLRLSCAASGSIFSINSMDWYRQAPGKQRELVATITSGGSTNYADSVKGRFTISRDNAKNTVYLQMNSLKPEDTAVYYCHAVVATRGGYWGQGTQVTVSS	3.9	0.0036	940000	9.8
nanobody 20 (VHH, pHEN6 vector; also called Nb 20; CA-number 3403; source: E. coli WK6 periplasm, purified (IMAC, gel filtration); not shown: His-tag, C-terminal, kept) VHH: QVQLQESGGGLVQPGGSLRLSCAASGNIFGINSMDWYRQAPGKQRELVATITSGGSTNYGDSVKGRFTISRDNAKNTMYLQMNSLKPEDTAVYYCHAVLSTRGGYWGQGTQVTVSS	3.5	0.0036	1.03e+06	4.86
nanobody 4 (VHH, pHEN6 vector; also called Nb 4; CA-number 3383; source: E. coli WK6 periplasm, purified (IMAC, gel filtration); not shown: His-tag, C-terminal, kept) VHH: QVQLQESGGGLVQPGGSLRLSCAASGSIFSMNSMDWYRQAPGKQRELVATITSGGSTNYADSVKGRFTISRDNAWNTVTLQMNSLKPEDTAVYYCHAVLSTRGGYWGQGTQVTVSS	3.4	0.0021	620000	3.87
nanobody 14 (VHH, pHEN6 vector; also called Nb 14; CA-number 3396; source: E. coli WK6 periplasm, purified (IMAC, gel filtration); not shown: His-tag, C-terminal, kept) VHH: QVQLQESGGGLVQPGGSLRLSCAASGSIFSINSMDWYRQAPGKQRELVATITSGGSTNYADSVKGRFTISRDNAKNTVYLQMNSLKPEDTAVYLCHAVVATRGGYWGQGTQVTVSS	2.6	0.0023	880000	6.07
nanobody 6 (VHH, pHEN6 vector; also called Nb 6; CA-number 3387; source: E. coli WK6 periplasm, purified (IMAC, gel filtration); not shown: His-tag, C-terminal, kept) VHH: QVQLQESGGGLVQPGGSLRLSCAASGSIFSINAMGWYRQAPGKQRELVAVLTRRGSTNYADSMKGRFTISRDNTKNTVYLQMNSLKPEDTAVYYCNADLEGRPLYWGQGTQVTVSS	4.4	0.0081	1.82e+06	4.7
nanobody 8 (VHH, pHEN6 vector; also called Nb 8; CA-number 3389; source: E. coli WK6 periplasm, purified (IMAC, gel filtration); not shown: His-tag, C-terminal, kept) VHH: QVQLQESGGGLVQPGGSLRLSCAASGSPFSFGAMGWYRQAPGKQRELAAIITNAGSTMYADSVKGRFTVSRVNAKNTVSLQMNNLKPEDTAVYYCYAQTAPVADVTWGQGTQVTVSS	0.58	0.00089	1.56e+06	15
nanobody 2 (VHH, pHEN6 vector; also called Nb 2; CA-number 3381; source: E. coli WK6 periplasm, purified (IMAC, gel filtration); not shown: His-tag, C-terminal, kept) VHH: QVQLQESGGGLVQAGGSLRLSCAASGGTFRTGGMAWFRQAPGKAREFAAGISWSGGSTDYGDSVKGRFTISRDNAKNTVYLQMNSLKPEDTAVYYCAASRRFRSGVLTRADDVDYWGKGTQVTVSS	81.2	0.104	1.31e+06	–
nanobody 22 (VHH, pHEN6 vector; also called Nb 22; CA-number 3406; source: E. coli WK6 periplasm, purified (IMAC, gel filtration); not shown: His-tag, C-terminal, kept) VHH: QVQLQESGGGLVQAGGSLRLSCAASGGTFKSGGMAWFRQAPGKAREFAAGISWSGGSTDYEDSVKGRFTISRDNAKNTMYLQMNSLKPEDTAVYYCAAARRFRAGVVTRADDVDYWGKGTQVTVSS	25.4	0.0061	240000	–
nanobody 7 (VHH, pHEN6 vector; also called Nb 7; CA-number 3388; source: E. coli WK6 periplasm, purified (IMAC, gel filtration); not shown: His-tag, C-terminal, kept) VHH: QVQLQESGGGLVQPGGSLRLSCTASGTIFMIDAMGWYRQAPGKQRELVALINSGGSTNYADSVKGRFAISRNNARSTVYLQMNSLKPEDTAVYYCNADTWNGVRRDVYWGQGTQVTVSS	23	0.07	3e+06	–
nanobody 12 (VHH, pHEN6 vector; also called Nb 12; CA-number 3394; source: E. coli WK6 periplasm, purified (IMAC, gel filtration); not shown: His-tag, C-terminal, kept) VHH: QVQLQESGGGLVQPGGSLRLSCVASGSIFSINAMGWYRQAPGKQRDLVAVITSRGSTNYADSVKGRFTISRDNAKNTTYLQMNSLKPEDTAVYYCNADLAAYYSGTYYDTLLYWGQGTQVTVSS	3.8	0.0025	650000	7.15
nanobody 18 (VHH, pHEN6 vector; also called Nb 18; CA-number 3401; source: E. coli WK6 periplasm, purified (IMAC, gel filtration); not shown: His-tag, C-terminal, kept) VHH: QVQLQESGGGLVQPGGSLRLSCAASGSIFSINAMGWYRQAPGKQRELVAFITKVGNTNYADSVKDRFAISRDNAKNTVYLQMNSLKPEDTAVYYCYADIENSSNYKQDFYWGQGTQVTVSS	1.1	0.00052	480000	15.7
